Columns and labels:
Conditions in all cases: protein: recombinant; label: 13-nm gold nanosphere via DNA1 3' thiol; partial duplex: aptamer 5' part pairs with DNA1; aptamer 3' overhang; DNA1 3' AAA tail
MMP-9 = MMP-9 (human, UniProt P14780 107-707); assay: SERS nanosensor (aptamer strand displacement, AuNS aggregation; UV-vis, DLS, TEM); MMP-9 10 ng/mL (selectivity), 350 ng/mL (UV-vis, DLS, TEM); AuNS-2 with DNA2/DTNB present; Assay buffer for MMP-9 in solution not in the material; duplex annealed in 8 mM phosphate, 0.8 mM MgCl2, 20 mM NaCl; cell supernatant assay at 37 C for 2 h
Chain of MMP-9 (P14780 107-707): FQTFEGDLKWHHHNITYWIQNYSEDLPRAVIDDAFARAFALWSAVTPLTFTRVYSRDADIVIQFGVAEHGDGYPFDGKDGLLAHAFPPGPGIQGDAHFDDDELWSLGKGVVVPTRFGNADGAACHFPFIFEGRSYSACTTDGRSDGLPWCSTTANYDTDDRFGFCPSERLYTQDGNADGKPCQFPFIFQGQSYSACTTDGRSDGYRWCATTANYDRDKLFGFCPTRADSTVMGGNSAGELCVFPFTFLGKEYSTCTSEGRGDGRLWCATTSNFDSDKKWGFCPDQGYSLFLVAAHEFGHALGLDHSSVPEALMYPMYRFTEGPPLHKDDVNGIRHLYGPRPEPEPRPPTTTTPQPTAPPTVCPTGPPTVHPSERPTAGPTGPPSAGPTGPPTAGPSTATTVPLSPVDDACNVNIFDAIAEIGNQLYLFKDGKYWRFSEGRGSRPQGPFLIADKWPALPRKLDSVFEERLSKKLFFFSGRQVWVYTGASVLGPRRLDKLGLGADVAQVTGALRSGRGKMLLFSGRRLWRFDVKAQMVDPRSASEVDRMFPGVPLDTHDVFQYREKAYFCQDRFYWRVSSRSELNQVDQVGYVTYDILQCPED

MMP-3 = MMP-3 (human, UniProt P08254 100-477); assay: SERS nanosensor (aptamer strand displacement); 100 ng/mL; AuNS-2 with DNA2/DTNB present; Assay buffer for MMP-9 in solution not in the material; duplex annealed in 8 mM phosphate, 0.8 mM MgCl2, 20 mM NaCl; cell supernatant assay at 37 C for 2 h
Chain of MMP-3 (P08254 100-477): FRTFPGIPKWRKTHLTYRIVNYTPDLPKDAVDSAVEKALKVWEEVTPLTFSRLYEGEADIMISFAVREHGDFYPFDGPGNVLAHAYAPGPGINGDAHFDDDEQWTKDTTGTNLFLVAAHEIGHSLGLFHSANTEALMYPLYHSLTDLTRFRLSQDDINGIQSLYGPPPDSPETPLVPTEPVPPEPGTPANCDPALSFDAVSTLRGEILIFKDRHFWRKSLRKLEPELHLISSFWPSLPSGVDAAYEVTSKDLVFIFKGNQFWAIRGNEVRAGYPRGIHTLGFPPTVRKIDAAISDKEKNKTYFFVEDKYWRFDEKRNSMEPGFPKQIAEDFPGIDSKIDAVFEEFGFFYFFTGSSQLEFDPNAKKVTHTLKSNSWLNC

MMP-7 = target: T1, MMP-7 (human, UniProt P09237 95-267); assay: as above
T1 sequence: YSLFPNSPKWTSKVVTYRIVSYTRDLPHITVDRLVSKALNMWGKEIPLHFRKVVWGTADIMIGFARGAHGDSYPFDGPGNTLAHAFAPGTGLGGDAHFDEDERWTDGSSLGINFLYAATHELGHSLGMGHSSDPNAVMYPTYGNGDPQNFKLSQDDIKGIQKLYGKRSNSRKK

MMP-2 = MMP-2 (human, UniProt P08253 110-660); assay: as above
Chain of MMP-2 (P08253 110-660): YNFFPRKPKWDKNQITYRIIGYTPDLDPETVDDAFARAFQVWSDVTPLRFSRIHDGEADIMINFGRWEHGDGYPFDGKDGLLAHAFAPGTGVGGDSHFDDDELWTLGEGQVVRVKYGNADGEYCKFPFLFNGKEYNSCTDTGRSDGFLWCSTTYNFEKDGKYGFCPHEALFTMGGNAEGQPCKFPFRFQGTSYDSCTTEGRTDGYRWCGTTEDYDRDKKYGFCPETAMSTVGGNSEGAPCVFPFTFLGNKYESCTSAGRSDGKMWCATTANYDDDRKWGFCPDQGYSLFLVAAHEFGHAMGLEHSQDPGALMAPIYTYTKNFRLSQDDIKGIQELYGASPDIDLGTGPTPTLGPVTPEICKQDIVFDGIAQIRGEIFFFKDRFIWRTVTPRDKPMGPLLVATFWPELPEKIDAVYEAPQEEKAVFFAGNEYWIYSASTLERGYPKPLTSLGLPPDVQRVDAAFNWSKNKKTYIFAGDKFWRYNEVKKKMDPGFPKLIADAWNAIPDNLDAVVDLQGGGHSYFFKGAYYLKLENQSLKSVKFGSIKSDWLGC

B1: MMP-9 aptamer (annealed to DNA1 on AuNS-1) (mixed)
DNA 1: TCGTATGGCACGGGGTTGGTGTTGGGTTGG
DNA 2: GGTGTGCCATACGAAA
modifications: DNA1 3' ThioMC3-D
MMP-9
  binding result: binds
MMP-3
  binding result: no binding
MMP-7
  binding result: no binding
MMP-2
  binding result: no binding

— article PMC10798921, “Target-induced hot spot construction for sensitive and selective surface-enhanced Raman scattering detection of matrix metalloproteinase MMP-9”
